The values that follow come from paper PMC4646322 (The Journal of Biological Chemistry, 2015).

Broadly, the stoichiometry N is a count of units in the complex or per binding partner.

Series [1] concerns the molecule itself. Kind of series: AUC; sedimentation equilibrium, 20 and 200 μM TolR(36–142), 15,000-35,000 rpm, 20 h at each speed, 50 mM Tris pH 7.5, 150 mM NaCl, 20 °C, interference optics; self-association model.
Series [2] deals with the molecule itself. The experiment in a line: SEC-MALS; SEC-MALLS, Superdex75 10/300, 50 mM Tris pH 7.5, 150 mM NaCl; samples loaded at 20, 200 or 500 μM. (Size exclusion chromatography separates by hydrodynamic size, large species first.)

B1: E. coli TolR(36–142), intact periplasmic domain of TolR (domain or fragment, Escherichia coli K12)
chain: GAMAPIITQSVEVDLPDATESQAVSSNDNPPVIVEVSGIGQYTVVVEKDRLERLPPEQVVAEVSSRFKANPKTVFLIGGAKDVPYDEIIKALNLLHSAGVKSVGLMTQPI
notes: three residues left at the N terminus after cleavage by tobacco etch virus protease; expected mass of the monomer 11,695.4 Da; Vector pETM-11; also called TolR21; source: E. coli BL21 DE3, purified (HisTrap, TEV cleavage, Superdex75); not shown: His6, N-terminal, cleaved
As for B1, in series [1], the “stoichiometry N” value was 2.

B2: E. coli TolR(60–133), truncated TolR (domain or fragment, Escherichia coli K12)
chain: GAMDNPPVIVEVSGIGQYTVVVEKDRLERLPPEQVVAEVSSRFKANPKTVFLIGGAKDVPYDEIIKALNLLHSAGVK
notes: three residues left at the N terminus after cleavage by tobacco etch virus protease; TolR, Escherichia coli K12, residues 60-133 (N- and C-terminal strand-swapped regions deleted); expected mass 8314.6 Da; Dimer that dissociates already at 200 μM; also called TolR24; source: E. coli BL21 DE3, purified (HisTrap, TEV cleavage, Superdex75); not shown: His6, N-terminal, cleaved
On to B2, for which, in series [2], the binding result is on record as “binds”.

B3: E. coli TolR(64–142) (domain or fragment, Escherichia coli K12)
chain: GAMVIVEVSGIGQYTVVVEKDRLERLPPEQVVAEVSSRFKANPKTVFLIGGAKDVPYDEIIKALNLLHSAGVKSVGLMTQPI
notes: three residues left at the N terminus after cleavage by tobacco etch virus protease; expected mass 8818.3 Da; Dimer that dissociates on dilution; source: E. coli BL21 DE3, purified (HisTrap, TEV cleavage, Superdex75); not shown: His6, N-terminal, cleaved
For the protein B3, the binding result in series [2] is “binds”.

B4: E. coli TolR(36–133) (domain or fragment, Escherichia coli K12)
chain: GAMAPIITQSVEVDLPDATESQAVSSNDNPPVIVEVSGIGQYTVVVEKDRLERLPPEQVVAEVSSRFKANPKTVFLIGGAKDVPYDEIIKALNLLHSAGVK
notes: three residues left at the N terminus after cleavage by tobacco etch virus protease; TolR, Escherichia coli K12, residues 36-133 (9 C-terminal residues deleted); expected mass 10,768.2 Da; Dimer that dissociates on dilution; essentially monomeric at low micromolar concentrations; source: E. coli BL21 DE3, purified (HisTrap, TEV cleavage, Superdex75); not shown: His6, N-terminal, cleaved
B4: in series [2], the binding result was “binds”.
